According to article PMC10557602 (bioRxiv, 2023):

B1: SARS-CoV-2 nsp9 (natural protein)
chain: NNELSPVALRQMSCAAGTTQTACTDDNALAYYNTTKGGRFVLALLSDLQDLKWARFPKSDGTGTIYTELEPPCRFVTDTPKGPKVKYLYFIKGLNNLNRGMVLGSLAATVRLQ
B2: RNAylated-nsp9 (20mer RNA) (natural protein)
chain: B1 chain

Target: SARS-CoV-2 nsp12 (SARS-CoV-2, UniProt P0DTD1)
Assay: cryo-EM structure

Row | Binder | binding result
1 | B1 | binds
2 | B2 | binds
